Assay results taken from patent publication US9932382B2, “Kv2.1 channel-derived peptides and methods of use” (University of Pittsburgh—Of the Commonwealth System of …, priority 2014, dated 2018).

Assays:
[1] = target: T1, Kv2.1/syntaxin binding (Homo sapiens, UniProt Q16623); test: Co-immunoprecipitation of Kv2.1 with syntaxin from transfected CHO cells; type: cell-based; conditions: for effect on Kv2.1/syntaxin binding (co-immunoprecipitation): syntaxin-expressing CHO cells co-transfected with Kv2.1 and peptide plasmid, syntaxin immunoprecipitates probed for Kv2.1
T1 construct: expressed in transfected cells; host or cells: CHO cells
T1 sequence (Q16623 whole entry): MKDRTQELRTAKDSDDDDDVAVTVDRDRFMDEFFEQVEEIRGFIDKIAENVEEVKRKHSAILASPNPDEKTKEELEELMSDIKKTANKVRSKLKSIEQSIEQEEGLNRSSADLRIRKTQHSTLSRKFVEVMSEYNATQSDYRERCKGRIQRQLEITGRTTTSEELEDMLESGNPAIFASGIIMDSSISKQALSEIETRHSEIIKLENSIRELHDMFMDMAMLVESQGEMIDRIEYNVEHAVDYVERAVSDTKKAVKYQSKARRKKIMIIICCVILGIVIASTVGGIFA
Protocol: For electrophysiological experiments, mixed cortical neuronal/glial cultures were prepared from embryonic day 16 (E16) Sprague-Dawley rats (Charles River Laboratories, Wilmington, Mass., USA). Donor rats were euthanized by gradual CO2 exposure. Cortices were dissociated with trypsin, and the resultant cell suspension, adjusted to 670,000 cells per well, was plated on glass coverslips in 6-well plates as described previously (Hartnett et al., J Neurochem 68, 1836-1845, 1997). Non-neuronal cell proliferation was inhibited after two weeks in culture with 1-2 μM cytosine arabinoside, and cultures utilized at three to four weeks in vitro. For neuronal transfection, cells were treated for five hours in serum-free medium with 2 μL LIPOFECTAMINE™ 2000 (Invitrogen, Carlsbad, Calif.), 50 μL Optimem (GIBCO, Grand Island, N.Y.), and 1.5 μg DNA per well. For CHO cell transfections, cells were plated on coverslips in 24-well plates at a density of 5.6×10^4 cells per well for electrophysiological measurements or in 100 mm dishes at a density of 1.7×10^6 cells per dish for biochemical studies. Cells were treated for 3-4 hours in serum-free medium with a total of 1.2 μL LIPOFECTAMINE™ and 0.28 μg DNA per well for electrophysiology, or 55.1 μL LIPOFECTAMINE™ and 7.33 μg DNA per dish for biochemistry. Following transfection, cells were maintained in F12 medium containing fetal bovine serum at 37° C., 5% CO2 for 24 hours prior to experimentation.
Protein was harvested by washing cell culture dishes with ice cold PBS followed by a short incubation with 1% 3-[(3-cholamidopropyl) dimethylammonio]-1-propanesulfonate buffer. Protein A/G agarose bead slurry (Santa Cruz, Dallas, Tex.) was added to the samples and rocked at 4° C. for 1 hour in order to pre-clear non-specific protein binding. Samples were then incubated overnight at 4° C. with the appropriate immunoprecipitating antibodies. Following another incubation with the bead slurry, the protein samples were prepared/denatured by the addition of sample preparation buffer (625 mM Tris, 25% glycerol, 2% sodium dodecyl sulfate (SDS), 0.01% bromophenol blue and 5% β-mercaptoethanol) and heated at 95° C. for 5 min prior to SDS polyacrylamide gel electrophoresis and immunoblotting.
Protein samples from equal amounts of cell lysate were separated on 10% sodium dodecyl sulfate SDS polyacrylamide gels by electrophoresis using the Mini Protean 3 System (Bio-Rad, Hercules, Calif.). Separated protein bands were transferred onto 0.2 μm nitrocellulose membranes (Bio-Rad), blocked with 1% bovine serum albumin (BSA) in PBS with 0.05% Tween 20 (PBST) at room temperature for 1 hour, and probed with appropriate primary antibodies diluted in PBST. Blots were then incubated with infrared fluorescent goat secondary antibodies at room temperature for 1 hour, visualized using the Odyssey Imaging System (LI-COR Biosciences, Lincoln, Nebr.), and quantified using infrared fluorimetry.
After establishing that C1a effectively precluded the oxidant-induced K^+ current increase in neurons, studies were performed to identify the sub-domains within C1a that could retain the ability to disrupt Kv2.1/syntaxin binding. C1a was divided into overlapping proximal and distal segments, hereafter referred to as C1a411-472 and C1a441-522, respectively. Co-immunoprecipitation experiments were performed to compare the ability of C1a and the smaller segments to displace Kv2.1 from syntaxin. Syntaxin immunoprecipitates of protein samples obtained from CHO cells transfected with a syntaxin-expressing plasmid, and co-transfected with Kv2.1 together with C1a, C1a411-472, or C1a441-522, were probed for Kv2.1.

[2] = test system: Kv2.1S800E; test: Whole-cell K+ current densities in CHO cells expressing Kv2.1S800E; type: cell-based; conditions: CHO cells co-transfected with Kv2.1S800E and peptide plasmid
Protocol: For electrophysiological experiments, mixed cortical neuronal/glial cultures were prepared from embryonic day 16 (E16) Sprague-Dawley rats (Charles River Laboratories, Wilmington, Mass., USA). Donor rats were euthanized by gradual CO2 exposure. Cortices were dissociated with trypsin, and the resultant cell suspension, adjusted to 670,000 cells per well, was plated on glass coverslips in 6-well plates as described previously (Hartnett et al., J Neurochem 68, 1836-1845, 1997). Non-neuronal cell proliferation was inhibited after two weeks in culture with 1-2 μM cytosine arabinoside, and cultures utilized at three to four weeks in vitro. […]
Current recordings were performed on eGFP-positive co-transfected neurons or CHO cells using the whole-cell patch clamp configuration technique as described previously (McLaughlin et al., J Neurosci 21, 3303-3311, 2001). […] To determine current density values, steady-state current amplitudes were measured 180 msec after the initiation of the +10 mV step and normalized to cell capacitance. […] By repeatedly adjusting the scaling factor k, an automated binary search algorithm determined threshold synaptic conductance (thresh-gsyn), the conductance required to reach firing threshold (Kullmann et al., J Neurophysiol 91, 542-54, 2004). […]

B1: C1a441-522: distal segment of C1a, residues 441-522 of rat Kv2.1 (protein, UniProt P15387 441-522, looked up, fragment)
chain: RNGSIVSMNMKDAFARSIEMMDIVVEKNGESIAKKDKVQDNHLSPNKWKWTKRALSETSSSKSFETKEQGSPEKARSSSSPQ
ability to displace Kv2.1 from syntaxin with Src kinase overexpression ([1]; CHO cells co-transfected with Kv2.1 and Src): retained the ability to displace Kv2.1 from syntaxin
effect on Kv2.1/syntaxin binding (co-immunoprecipitation) [1]: inhibited Kv2.1/syntaxin binding
effect on enhanced K+ currents of Kv2.1S800E [2]: blocked the increase in currents

B2: C1a: rat Kv2.1 C1a peptide, residues 411-522 of SEQ ID NO: 3, expressed from a plasmid (protein, listed as Rattus norvegicus)
chain: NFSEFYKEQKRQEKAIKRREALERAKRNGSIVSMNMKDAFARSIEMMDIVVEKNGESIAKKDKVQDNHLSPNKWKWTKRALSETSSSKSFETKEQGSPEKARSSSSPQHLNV
effect on Kv2.1/syntaxin binding (co-immunoprecipitation) [1]: inhibited Kv2.1/syntaxin binding
effect on enhanced K+ currents of Kv2.1S800E [2]: suppressed the enhanced K^+ currents
